PMC4310633 (Biochemistry, 2014)

B1: ligand binding domain (LBD) of the GluN2A subunit of the NMDA receptor (domain or fragment)
chain: not shown
B2: ligand binding domain (LBD) of the GluN1 subunit of the NMDA receptor (domain or fragment)
chain: not shown

Biological target: the molecule itself
Test: AUC

Protein	stoichiometry N
B1	2
B2	2
